Experimental data reported in US20220267751.

Key:
recombinant plasminogen = target: T1, recombinant plasminogen
T1 chain: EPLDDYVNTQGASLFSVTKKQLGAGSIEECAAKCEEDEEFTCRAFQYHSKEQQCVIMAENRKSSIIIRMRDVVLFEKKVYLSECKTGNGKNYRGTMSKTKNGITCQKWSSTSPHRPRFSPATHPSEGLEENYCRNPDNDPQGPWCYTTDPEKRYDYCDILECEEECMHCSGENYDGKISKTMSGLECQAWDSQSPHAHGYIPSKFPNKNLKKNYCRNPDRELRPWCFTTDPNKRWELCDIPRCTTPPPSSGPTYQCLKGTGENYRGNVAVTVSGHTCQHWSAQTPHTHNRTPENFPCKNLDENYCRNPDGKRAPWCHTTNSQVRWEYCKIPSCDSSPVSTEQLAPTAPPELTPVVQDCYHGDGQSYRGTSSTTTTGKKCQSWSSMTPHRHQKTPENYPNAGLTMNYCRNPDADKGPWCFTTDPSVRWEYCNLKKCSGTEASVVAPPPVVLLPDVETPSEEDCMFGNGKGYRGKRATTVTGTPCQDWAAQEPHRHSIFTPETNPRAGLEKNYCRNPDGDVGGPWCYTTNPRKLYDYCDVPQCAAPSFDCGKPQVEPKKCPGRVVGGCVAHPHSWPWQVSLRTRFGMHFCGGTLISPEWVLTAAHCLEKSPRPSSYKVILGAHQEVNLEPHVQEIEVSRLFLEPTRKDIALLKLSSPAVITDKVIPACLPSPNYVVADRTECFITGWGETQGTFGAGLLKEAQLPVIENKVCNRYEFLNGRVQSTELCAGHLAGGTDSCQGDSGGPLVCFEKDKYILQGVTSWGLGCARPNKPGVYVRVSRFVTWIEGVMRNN

[1] = target: T2, native plasminogen glycoform I (purified in-house from human plasma), P00747
T2 chain: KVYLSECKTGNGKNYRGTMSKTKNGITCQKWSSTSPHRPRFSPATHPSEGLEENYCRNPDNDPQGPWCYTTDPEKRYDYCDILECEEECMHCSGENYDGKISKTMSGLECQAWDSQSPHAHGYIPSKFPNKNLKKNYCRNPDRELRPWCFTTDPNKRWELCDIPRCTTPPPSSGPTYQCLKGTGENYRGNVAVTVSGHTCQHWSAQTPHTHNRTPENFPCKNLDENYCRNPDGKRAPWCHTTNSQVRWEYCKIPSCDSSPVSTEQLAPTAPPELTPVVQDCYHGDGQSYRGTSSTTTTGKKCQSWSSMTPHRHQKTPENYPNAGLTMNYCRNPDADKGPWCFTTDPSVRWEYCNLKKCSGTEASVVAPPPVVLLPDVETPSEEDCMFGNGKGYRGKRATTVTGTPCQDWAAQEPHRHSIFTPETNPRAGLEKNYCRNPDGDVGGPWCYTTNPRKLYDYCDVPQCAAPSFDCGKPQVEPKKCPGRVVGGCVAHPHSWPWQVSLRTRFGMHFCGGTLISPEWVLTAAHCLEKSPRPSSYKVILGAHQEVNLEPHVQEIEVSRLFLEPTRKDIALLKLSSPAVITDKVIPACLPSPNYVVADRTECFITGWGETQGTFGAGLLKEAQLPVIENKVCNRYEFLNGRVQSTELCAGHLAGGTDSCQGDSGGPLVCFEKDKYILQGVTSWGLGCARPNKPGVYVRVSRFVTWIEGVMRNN

[2] = target: T3, native plasminogen glycoform II (purified in-house from human plasma), P00747
T3 chain: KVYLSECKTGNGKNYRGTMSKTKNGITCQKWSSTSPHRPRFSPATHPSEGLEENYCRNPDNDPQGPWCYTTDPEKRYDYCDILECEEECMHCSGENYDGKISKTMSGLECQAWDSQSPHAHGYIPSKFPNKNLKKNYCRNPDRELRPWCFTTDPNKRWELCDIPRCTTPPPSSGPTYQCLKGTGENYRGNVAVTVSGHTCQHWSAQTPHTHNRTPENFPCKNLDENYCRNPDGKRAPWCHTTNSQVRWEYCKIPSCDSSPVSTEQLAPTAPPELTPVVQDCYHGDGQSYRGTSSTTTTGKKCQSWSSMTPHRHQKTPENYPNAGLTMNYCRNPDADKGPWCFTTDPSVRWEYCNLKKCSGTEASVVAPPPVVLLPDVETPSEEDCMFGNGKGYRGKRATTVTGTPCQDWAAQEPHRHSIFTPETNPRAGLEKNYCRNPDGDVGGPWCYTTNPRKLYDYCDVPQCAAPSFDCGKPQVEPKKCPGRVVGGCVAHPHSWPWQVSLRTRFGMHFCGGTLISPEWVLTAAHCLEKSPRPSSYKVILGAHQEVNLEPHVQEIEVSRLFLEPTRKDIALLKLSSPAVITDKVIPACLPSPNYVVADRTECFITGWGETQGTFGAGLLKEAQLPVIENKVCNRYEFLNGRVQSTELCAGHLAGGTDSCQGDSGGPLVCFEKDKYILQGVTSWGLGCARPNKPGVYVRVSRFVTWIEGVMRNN

B1: tissue-type plasminogen activator (protein)
chain: SYQVICRDEKTQMIYQQHQSWLRPVLRSNRVEYCWCNSGRAQCHSVPVKSCSEPRCFNGGTCQQALYFSDFVCQCPEGFAGKCCEIDTRATCYEDQGISYRGTWSTAESGAECTNWNSSALAQKPYSGRRPDAIRLGLGNHNYCRNPDRDSKPWCYVFKAGKYSSEFCSTPACSEGNSDCYFGNGSAYRGTHSLTESGASCLPWNSMILIGKVYTAQNPSAQALGLGKHNYCRNPDGDAKPWCHVLKNRRLTWEYCDVPSCSTCGLRQYSQPQFRIKGGLFADIASHPWQAAIFAKHRRSPGERFLCGGILISSCWILSAAHCFQERFPPHHLTVILGRTYRVVPGEEEQKFEVEKYIVHKEFDDDTYDNDIALLQLKSDSSRCAQESSVVRTVCLPPADLQLPDWTECELSGYGKHEALSPFYSERLKEAHVRLYPSSRCTSQHLLNRTVTDNMLCAGDTRSGGPQANLHDACQGDSGGPLVCLNDGRMTLVGIISWGLGCGQKDVPGVYTKVTNYLDWIRDNMRP
Km (nM) of Plg activation by tPA (recombinant plasminogen): 139 nM | Vmax (nM/s) of Plg activation by tPA (recombinant plasminogen): 3.47 nM/s | cleavage to plasmin, SDS-PAGE under reducing conditions (recombinant plasminogen): tPA-cleaved recombinant plasmin (rPlm) resulting from the cleavage of rPlg by tPA | Km (nM) of Plg activation by tPA [1]: 163 nM | Vmax (nM/s) of Plg activation by tPA [1]: 3.06 nM/s | Km (nM) of Plg activation by tPA [2]: 146 nM | Vmax (nM/s) of Plg activation by tPA [2]: 1.67 nM/s
